Laboratory results from the RNAGym collection of RNA variant scans (doi:10.7554/elife.80360).

B1: Hammerhead Ribozyme (parent)
chain: ACCGGAUGUGCUUUCCGGUCUGAUGAGUCCGUGAGGACGAAACAG

Variants of: B1
Test: self-cleavage, relative activity (ratio to wild type); higher = more cleavage; co-transcriptional

Q: For ACCGGAUGGGCUUUCCGGUCUGAUGAGUCCGUGAGGACGCAACAG [U9G A40C], which self-cleavage is on record?
A: 0.423

Q: With ACCGGAUGUGCUUUCCGGCCUGAUGAGUCCGUGAGGCCGAAACAG [U19C A37C] as the variant, how does the self-cleavage read?
A: 0.668

Q: Which self-cleavage does the source give for ACCGGAUGUGCUUUCCGGUCUGAUGAGUUCGUGAGGUCGAAACAG [C29U A37U] here?
A: 0.371

Q: With ACCGGAUGUGCUUUCCGGUAUGAUGAGACCGUGAGGACGAAACAG [C20A U28A] as the variant, how does the self-cleavage read?
A: 0.435

Q: Which self-cleavage does the source give for GCCGGAUGUGCUUUCUGGUCUGAUGAGUCCGUGAGGACGAAACAG [A1G C16U] here?
A: 1.9

Q: Which self-cleavage does the source give for ACCGGAUGUGCUAUCCGGUCUGAUGAGUGCGUGAGGACGAAACAG [U13A C29G] here?
A: 0.922

Q: With ACCGGUUGUGCUUUCCGGUCUGAUGAGUCCGAGAGGACGAAACAG [A6U U32A] as the variant, how does the self-cleavage read?
A: 0.605

Q: For ACCGGAUGUGCUUUCCGGUCUGAUGAGUGCGUGUGGACGAAACAG [C29G A34U], which self-cleavage is on record?
A: 0.748

Q: Which self-cleavage does the source give for ACCGGCUGUGCUUUCCGGUCUGAUGAGUCCGUGAGGACGAAACAC [A6C G45C] here?
A: 0.433

Q: For ACCGGAUGUGCUUUCCUGUCUGAUGAGUCCGUGAGGACGCAACAG [G17U A40C], which self-cleavage is on record?
A: 0.449

Q: Which self-cleavage does the source give for GCCGAAUGUGCUUUCCGGUCUGAUGAGUCCGUGAGGACGAAACAG [A1G G5A] here?
A: 1.04

Q: With ACCGGAUGUGCUUUCCGUUCUGAUGAGUCCGUGAGGAAGAAACAG [G18U C38A] as the variant, how does the self-cleavage read?
A: 0.527

Q: Which self-cleavage does the source give for ACCGGAUGUGCUUUCCGGUCUGAUGAGUCCGUGGGGACCAAACAG [A34G G39C] here?
A: 0.338

Q: For ACCGGAUGUGCUUUCCGGUCUGAUGAGUCGGUGAGGACGAAACAC [C30G G45C], which self-cleavage is on record?
A: 0.608

Q: With ACCGGAUGUGCUUUCCGGUCUGAUGAGUCCUUGACGACGAAACAG [G31U G35C] as the variant, how does the self-cleavage read?
A: 0.654

Q: For ACCGGAUGUCCUUUCCGGUCUGAUGAGUCCGUGAGGACCAAACAG [G10C G39C], which self-cleavage is on record?
A: 0.324

Q: With ACCGGAUGUGCUUUCCGGUCUGAUGAGUCCGUGAGGACAAAAGAG [G39A C43G] as the variant, how does the self-cleavage read?
A: 0.264

Q: For ACCGGAUGUGCUUUCCGGUAUGAUGAGUCCGGGAGGACGAAACAG [C20A U32G], which self-cleavage is on record?
A: 0.255

Q: For ACCGGAUGUGCUUUCCGGUUUGAUGAGUCCGUGAGCACGAAACAG [C20U G36C], which self-cleavage is on record?
A: 0.327

Q: With ACCGGAUGUGCUUUCCGGUCUGAAGAGUCCCUGAGGACGAAACAG [U24A G31C] as the variant, how does the self-cleavage read?
A: 0.814

Q: With ACCGGAUGUGCUUCCCCGUCUGAUGAGUCCGUGAGGACGAAACAG [U14C G17C] as the variant, how does the self-cleavage read?
A: 0.342

Q: For ACCGGAUGUGCUUUCCGGUCUGAUGAGUUCGUGAGGACGAUACAG [C29U A41U], which self-cleavage is on record?
A: 0.337

Q: Which self-cleavage does the source give for ACCGGAAGUGCUUUCCGGUCUGAUGAGUCCGUGAGGAUGAAACAG [U7A C38U] here?
A: 1.27

Q: For ACGGGAUGUGCUUUCCGGUCUGAUGAGUCCGUGAGGUCGAAACAG [C3G A37U], which self-cleavage is on record?
A: 0.327

Q: For ACCGGAUGUGCUUUCCGGUCUGAUGAGUACGUGAGGACGAAACAA [C29A G45A], which self-cleavage is on record?
A: 0.372

Q: Which self-cleavage does the source give for ACCGGAUGUGCGUUCCGGUCUGAUGAGUCCGUAAGGACGAAACAG [U12G G33A] here?
A: 1.02

Q: For ACCGGAUGUGCAUUCCGUUCUGAUGAGUCCGUGAGGACGAAACAG [U12A G18U], which self-cleavage is on record?
A: 0.888

Q: For ACCGGAUGUGCAUUCCGGUCUGUUGAGUCCGUGAGGACGAAACAG [U12A A23U], which self-cleavage is on record?
A: 0.317

Q: Which self-cleavage does the source give for ACCGGAUGUGCUUUCCGGUCUGAUGAGUCCGGUAGGACGAAACAG [U32G G33U] here?
A: 0.838

Q: With ACCGGAUGUGCUUUCCGGUCUGAUGAGUCCGUGGGGACGAAGCAG [A34G A42G] as the variant, how does the self-cleavage read?
A: 0.264

Q: With ACCGGAUGCGCUUUCCGGUCUGAUGAUUCCGUGAGGACGAAACAG [U9C G27U] as the variant, how does the self-cleavage read?
A: 0.505

Q: With ACCGGAUGUGCAUUCCGGUCUGAUGAGUCCGUGAGGACGAAACCG [U12A A44C] as the variant, how does the self-cleavage read?
A: 0.481

Q: With ACCGGAUGUGCAUUCCGGUCUGAUGAGUCCGUGAGGACGAAACAA [U12A G45A] as the variant, how does the self-cleavage read?
A: 0.678

Q: For ACCGGAUGUGCUUUGCGGUGUGAUGAGUCCGUGAGGACGAAACAG [C15G C20G], which self-cleavage is on record?
A: 0.283

Q: Which self-cleavage does the source give for ACCGGAUGUGCUUUCCGGUCUGAUGGGUCCGUGAGGACGAAACCG [A26G A44C] here?
A: 0.266

Q: With ACCGGAUGUGCUGUCGGGUCUGAUGAGUCCGUGAGGACGAAACAG [U13G C16G] as the variant, how does the self-cleavage read?
A: 0.899

Q: Which self-cleavage does the source give for ACCGGAUGAGCUUUCCGGUCUGAUGAGUCCGUGAGGACGAAAGAG [U9A C43G] here?
A: 0.458

Q: Which self-cleavage does the source give for ACCGGAUGUGCUUUCCGGUCUGAUGCGUACGUGAGGACGAAACAG [A26C C29A] here?
A: 0.241

Q: For ACCGGAUGUGCUUUCCGGUCUGAUGAGUCCGUGAGGACGUACCAG [A40U A42C], which self-cleavage is on record?
A: 0.369

Q: Which self-cleavage does the source give for ACCGGAUGUGCUUUCCGGUCUGAUGAGGCCGUGAGGACGAAACAG [U28G] here?
A: 0.873

Q: With ACCGGAUGUGUUUUCCGGUCUGAUGAGUCCGUGAGGACGAAAAAG [C11U C43A] as the variant, how does the self-cleavage read?
A: 0.36

Q: For ACCGGAUGUGCUUUACGGUCUGAUGAGUCCGUGAGUACGAAACAG [C15A G36U], which self-cleavage is on record?
A: 0.341

Q: For ACCGGAUGUGCUUUACGGUCUGAUGAGUCUGUGAGGACGAAACAG [C15A C30U], which self-cleavage is on record?
A: 1.01

Q: Which self-cleavage does the source give for ACCGGAUGAGCUUUCCGGUCUGAUGAGUCCAUGAGGACGAAACAG [U9A G31A] here?
A: 0.825

Q: For ACCCGAUGUGCUUUCCGGUCUGAUGAGUCCGUGAGGACGAAACCG [G4C A44C], which self-cleavage is on record?
A: 0.422

Q: Which self-cleavage does the source give for AGCGGAUGUGCUUUCCGGUCUGAUGAGUCCGUGAGGACGAAUCAG [C2G A42U] here?
A: 0.292

Q: Which self-cleavage does the source give for ACCGGAUGUGCUUUCCGGUCUGAUGAGUCCGUGAAGCCGAAACAG [G35A A37C] here?
A: 0.364

Q: Which self-cleavage does the source give for ACCGGAUGUGCUUUCCGGUCUGAGGAGUCCGUGAGGACGAAUCAG [U24G A42U] here?
A: 0.324

Q: Which self-cleavage does the source give for ACCGGAUGAGCUUUCCGGACUGAUGAGUCCGUGAGGACGAAACAG [U9A U19A] here?
A: 0.291

Q: Which self-cleavage does the source give for ACCGGAUGUGCUCUCCGCUCUGAUGAGUCCGUGAGGACGAAACAG [U13C G18C] here?
A: 0.842

Q: Which self-cleavage does the source give for ACCGGAUGUGCUUUCCGGUCUGGUGAGUCGGUGAGGACGAAACAG [A23G C30G] here?
A: 0.248

Q: Which self-cleavage does the source give for ACCGGAUGUCCUUUCCGGUGUGAUGAGUCCGUGAGGACGAAACAG [G10C C20G] here?
A: 0.4

Q: Which self-cleavage does the source give for ACCGGAUGUGCUUUCCGGUCUGAUGAGUCUGUGAGGACGAGACAG [C30U A41G] here?
A: 0.35

Q: For ACUGGAUGUGCUUUCCGGUCUGAUGAGUCCGUGAGGACGAGACAG [C3U A41G], which self-cleavage is on record?
A: 0.354

Q: Which self-cleavage does the source give for AGCGCAUGUGCUUUCCGGUCUGAUGAGUCCGUGAGGACGAAACAG [C2G G5C] here?
A: 0.309

Q: For ACCGGAAGUGCUUUCCGGUCUAAUGAGUCCGUGAGGACGAAACAG [U7A G22A], which self-cleavage is on record?
A: 0.291

Q: For ACCGGAUGUGCUUUCCGGUCUGACGAGUUCGUGAGGACGAAACAG [U24C C29U], which self-cleavage is on record?
A: 1.05
